Data reported in the supplement of paper PMC9112550, “Optimization of the antimicrobial peptide Bac7 by deep mutational scanning” (BMC Biology, 2022).

Test system: Escherichia coli TOP10
Assay: shrunken log2 fold change of peptide-encoding DNA abundance (4.5 h post-induction vs induction); higher = less antimicrobial activity (less host growth inhibition)
Conditions: time post-induction: 4.5 h; library: site-saturation at positions 5, 18, 19, 20
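Also: peptides expressed intracellularly from a pBAD plasmid library in pooled LB shake-flask culture, induced with 0.3% L-arabinose, DNA abundance read by NGS, three biological replicates, DESeq2 with apeglm shrinkage.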

| Sequence | shrunken log2 fold change |
| --- | --- |
| RRIRARPPRLPRPRPRPWRMPRP | 0.0537 |
| RRIRGRPPRLPRPRPRPNAWPRP | 0.728 |
| RRIRIRPPRLPRPRPRPMHVPRP | -0.00468 |
| RRIRARPPRLPRPRPRPAVSPRP | 0.431 |
| RRIRLRPPRLPRPRPRPWNEPRP | -0.11 |
| RRIRCRPPRLPRPRPRPGFWPRP | 0.226 |
| RRIRWRPPRLPRPRPRPLLQPRP | 0.2 |
| RRIRIRPPRLPRPRPRPFMVPRP | -0.975 |
| RRIRNRPPRLPRPRPRPTPMPRP | 0.0289 |
| RRIRVRPPRLPRPRPRPMMKPRP | 0.168 |
| RRIRWRPPRLPRPRPRPGYMPRP | -0.288 |
| RRIRDRPPRLPRPRPRPHNTPRP | -0.531 |
| RRIRQRPPRLPRPRPRPTRNPRP | 0.185 |
| RRIRQRPPRLPRPRPRPEDNPRP | -0.0442 |
| RRIRNRPPRLPRPRPRPHFFPRP | 3.33 |
| RRIRTRPPRLPRPRPRPVIEPRP | -0.408 |
| RRIRIRPPRLPRPRPRPRLRPRP | -0.0272 |
| RRIRIRPPRLPRPRPRPKAIPRP | -0.157 |
| RRIRTRPPRLPRPRPRPKIAPRP | -0.0425 |
| RRIRARPPRLPRPRPRPFSPPRP | -0.342 |
| RRIRKRPPRLPRPRPRPEMAPRP | 1.73 |
| RRIRCRPPRLPRPRPRPFSSPRP | -0.24 |

| Sequence | shrunken log2 fold change |
| --- | --- |
| RRIRMRPPRLPRPRPRPMCNPRP | -0.00494 |
| RRIRHRPPRLPRPRPRPPSLPRP | -0.0977 |
| RRIRYRPPRLPRPRPRPPFVPRP | -0.304 |
| RRIRDRPPRLPRPRPRPGTAPRP | 0.0777 |
| RRIRWRPPRLPRPRPRPKLHPRP | 0.0953 |
| RRIRLRPPRLPRPRPRPQTMPRP | -0.0345 |
| RRIRLRPPRLPRPRPRPKCVPRP | 0.0912 |
| RRIRKRPPRLPRPRPRPVFPPRP | 0.0527 |
| RRIRIRPPRLPRPRPRPQHIPRP | -0.542 |
| RRIRARPPRLPRPRPRPESRPRP | 0.147 |
| RRIRNRPPRLPRPRPRPPRKPRP | 0.523 |
| RRIRQRPPRLPRPRPRPYLVPRP | -0.551 |
| RRIRFRPPRLPRPRPRPQGAPRP | -0.0798 |
| RRIRVRPPRLPRPRPRPCWEPRP | -0.0578 |
| RRIRQRPPRLPRPRPRPGRYPRP | -0.205 |
| RRIRFRPPRLPRPRPRPKEFPRP | -0.0812 |
| RRIRIRPPRLPRPRPRPKMQPRP | -0.293 |
| RRIRMRPPRLPRPRPRPVRQPRP | 0.332 |
| RRIRPRPPRLPRPRPRPDNDPRP | 0.0931 |
| RRIRRRPPRLPRPRPRPTLCPRP | 0.581 |
| RRIRFRPPRLPRPRPRPTFAPRP | 0.0698 |
| RRIRIRPPRLPRPRPRPGSDPRP | -0.209 |

| Sequence | shrunken log2 fold change |
| --- | --- |
| RRIRPRPPRLPRPRPRPPPQPRP | 0.963 |
| RRIRARPPRLPRPRPRPDNTPRP | -0.214 |
| RRIRMRPPRLPRPRPRPEDPPRP | 1.02 |
| RRIRDRPPRLPRPRPRPGKEPRP | -0.0214 |
| RRIRKRPPRLPRPRPRPEPFPRP | 0.0238 |
| RRIRDRPPRLPRPRPRPPACPRP | 0.0727 |
| RRIRHRPPRLPRPRPRPVFDPRP | -0.0994 |
| RRIRSRPPRLPRPRPRPERGPRP | -0.0603 |
| RRIRKRPPRLPRPRPRPMGPPRP | 0.339 |
| RRIRMRPPRLPRPRPRPIRGPRP | -0.00871 |
| RRIRTRPPRLPRPRPRPFTNPRP | -0.0559 |
| RRIRFRPPRLPRPRPRPVYSPRP | -0.12 |
| RRIRLRPPRLPRPRPRPMQTPRP | 0.0393 |
| RRIRVRPPRLPRPRPRPGANPRP | 0.222 |
| RRIRNRPPRLPRPRPRPSFEPRP | -0.0494 |
| RRIRLRPPRLPRPRPRPFELPRP | -0.519 |
| RRIRVRPPRLPRPRPRPLQAPRP | 0.432 |
| RRIRMRPPRLPRPRPRPFMMPRP | -0.113 |
| RRIRKRPPRLPRPRPRPKMFPRP | -0.146 |
| RRIRPRPPRLPRPRPRPTWYPRP | -0.133 |
| RRIRARPPRLPRPRPRPSALPRP | 0.591 |
| RRIRERPPRLPRPRPRPDRLPRP | -0.147 |

| Sequence | shrunken log2 fold change |
| --- | --- |
| RRIRTRPPRLPRPRPRPTLHPRP | -0.126 |
| RRIRTRPPRLPRPRPRPYFFPRP | -0.684 |
| RRIRCRPPRLPRPRPRPMSMPRP | -0.212 |
| RRIRVRPPRLPRPRPRPHCEPRP | -0.0141 |
| RRIRPRPPRLPRPRPRPSFPPRP | -0.0649 |
| RRIRDRPPRLPRPRPRPHLCPRP | -0.0584 |
| RRIRLRPPRLPRPRPRPYCDPRP | -0.328 |
| RRIRFRPPRLPRPRPRPGIMPRP | -0.124 |
| RRIRVRPPRLPRPRPRPSQEPRP | -0.549 |
| RRIRWRPPRLPRPRPRPPCQPRP | 0.0989 |
| RRIRQRPPRLPRPRPRPTGAPRP | 0.412 |
| RRIRSRPPRLPRPRPRPWGWPRP | 0.0685 |
| RRIRCRPPRLPRPRPRPACYPRP | 0.0371 |
| RRIRWRPPRLPRPRPRPCGYPRP | 0.14 |
| RRIRGRPPRLPRPRPRPGNVPRP | 0.22 |
| RRIRWRPPRLPRPRPRPDDAPRP | 0.368 |
| RRIRRRPPRLPRPRPRPPYTPRP | 0.00247 |
| RRIRDRPPRLPRPRPRPNTHPRP | -0.292 |
| RRIRHRPPRLPRPRPRPCSKPRP | -0.0875 |
| RRIRVRPPRLPRPRPRPIMMPRP | -0.0138 |
| RRIRGRPPRLPRPRPRPNDWPRP | 0.235 |
| RRIRERPPRLPRPRPRPDSPPRP | -0.184 |

| Sequence | shrunken log2 fold change |
| --- | --- |
| RRIRLRPPRLPRPRPRPSCSPRP | -0.527 |
| RRIRRRPPRLPRPRPRPAFHPRP | 0.083 |
| RRIRDRPPRLPRPRPRPFKRPRP | -0.00875 |
| RRIRQRPPRLPRPRPRPKSAPRP | -0.0082 |
| RRIRWRPPRLPRPRPRPSENPRP | -0.134 |
| RRIRARPPRLPRPRPRPEMYPRP | 0.151 |
| RRIRGRPPRLPRPRPRPSEAPRP | 0.848 |
| RRIRWRPPRLPRPRPRPDQCPRP | 0.25 |
| RRIRSRPPRLPRPRPRPEPLPRP | 0.0528 |
| RRIRCRPPRLPRPRPRPWEFPRP | 0.0363 |
| RRIRYRPPRLPRPRPRPDLVPRP | -0.0421 |
| RRIRERPPRLPRPRPRPIFYPRP | -0.385 |
| RRIRARPPRLPRPRPRPMQIPRP | 0.446 |
| RRIRVRPPRLPRPRPRPAFSPRP | 0.104 |
| RRIRHRPPRLPRPRPRPFDFPRP | -1.21 |
| RRIRYRPPRLPRPRPRPRWVPRP | -0.0064 |
| RRIRCRPPRLPRPRPRPFFTPRP | -0.0887 |
| RRIRNRPPRLPRPRPRPQRTPRP | -0.248 |
| RRIRERPPRLPRPRPRPVCTPRP | -0.147 |
| RRIRMRPPRLPRPRPRPLLIPRP | -0.397 |
| RRIRPRPPRLPRPRPRPPFEPRP | 0.596 |
